Test [1] concerns the target T1, full-length human APLNR (hAPLNR) (human, UniProt P35414 1-380).
T1 sequence: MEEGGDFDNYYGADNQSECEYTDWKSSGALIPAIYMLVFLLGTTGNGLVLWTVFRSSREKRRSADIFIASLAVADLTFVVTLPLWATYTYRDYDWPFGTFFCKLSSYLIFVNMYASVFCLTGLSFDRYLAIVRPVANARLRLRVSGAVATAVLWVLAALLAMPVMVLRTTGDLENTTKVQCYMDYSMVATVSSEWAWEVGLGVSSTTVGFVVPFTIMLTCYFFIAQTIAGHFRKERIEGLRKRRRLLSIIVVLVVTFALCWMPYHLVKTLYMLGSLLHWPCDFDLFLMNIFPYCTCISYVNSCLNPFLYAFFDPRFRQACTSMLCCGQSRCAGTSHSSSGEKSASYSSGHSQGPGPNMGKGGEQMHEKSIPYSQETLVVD
Put plainly: cell-based or functional assay.

The target in test [2] is T1, full-length human APLNR (hAPLNR). Briefly: cell-based or functional assay. This is another data set of the same source.

From patent US20190177410A1 (Regeneron, published 2019) come the findings set out here.

B1: H2aM9232N (antibody, mouse IgG2a, V domains shown)
VH: QVKLVESGGGVVQPGRSLRLSCAASGFTFSNYVIHWVRQAPGKGLEWVAVIWYDGSNKYYADSVKGRFTISRDNSKNTLYLQMNSLRAEDTAVYYCARDRVVRGVDYYYYYGLDVWGQGTSVTVSS
VL: EIVMTQSPATLSVSPGERATLSCRASQSVRSNLAWYQQKPGQAPRLLIYGASSRATGIPARFSGTGSGTEFTLTISSLQSDDFAVYYCQQYNKWPRTFGQGTKVEIK
For the molecule B1, the “Inhibiting IC50 (M), ratio of pERK1/2 to total ERK, CHO/hAPLNR cells” value in test [1] was 2.09e-07 M.

B2: H4H9092P (antibody, human IgG4, V domains shown)
VH: EVQLVESGGGLVKPGGSLRLSCAASGITFSNAWMSWVRQAPGKGLEWVGRIKSKVDGGTIDYAAPVKGRFTISRDDSKNTLYLQMNSLKTEDTAVYYCTTGRITMVRGVLGYWGQGTLVTVSS
VL: not shown
The term % Inhibition denotes how much of the control response was suppressed. In the case of B2, the “% Inhibition at 100 nM mAb, in the presence of 100 pM Apelin (at 10 uM Forskolin), CRE-luc” value in test [2] amounted to 5%.
